The text below walks through data of patent US20260374739A1, “SMALL MOLECULAR WEIGHT CHEMICAL COMPOUND TO ANTAGONIZE EPH-EPHRIN TETRAMERIZATION AND INHIBIT BIDIRECTIONAL SIGNALING” (THE BOARD OF REGENTS OF THE UNIVERSITY OF TEXAS SYSTEM, priority 2022, published 2026).

Like-named read-outs stand apart in the source and are kept apart here.

One experiment concerns the target human EphrinB1. In words: Octet binding kinetics, EphB to immobilized human EphrinB1. How it is done:
(§1) Studies were conducted to confirm that A20 chemicals can effectively target the human Eph/Ephrin proteins. Octet system was used to first characterize the biophysical interactions of the human B class Eph and Ephrin proteins, and then was tested to assess how A20 may disrupt the interactions. Since the human and rodent proteins are highly conserved, and essentially identical, with EphB2 sharing 99.5% identity between human and mouse, with only 5 of ~1,000 amino acids different, any species-specific differences were not anticipated. Therefore, commercially available human EphrinB1-Fc (EB1), EphrinB2-Fc (EB2), and EphrinB3-Fc (EB3) ectodomain proteins were sparsely immobilized onto biosensors and then exposed to 50 nM of soluble human EphB1-His, EphB2-His, and EphB4-His ectodomains for 800 sec association and 1,000 sec dissociation steps with a total of nine different interactions analyzed. In the absence of A20 chemical, the immobilized human EphrinB proteins bound to their appropriate human EphB target proteins; with EphrinB1 only bound EphB1 and EphB2, EphrinB2 bound all three EphB1, EphB2, and EphB4, and EphrinB3 only bound EphB1 and EphB2 (FIG. 19A-19B).
(§2) While the binding kinetics described above for the various human EphB-EphrinB interactions are complicated and show clear differences, all are extremely high affinity interactions with KD values in the low nanomolar to picomolar range (Table 2). Octet software allows for detailed biophysical analysis of the sensorgram data and first attempts to fit the information to equations that follow rather standard binding characteristics, most typified by either a classic 1:1 binding type interaction (like formation of a simple receptor-ligand dimer) or something more complex/heterologous involving 2:1 binding type interactions (like Eph-Ephrin dimer and tetramer). Based on the information contained in the sensorgram run under analysis, the Octet software will attempt to draw curves to fit the data to 1:1 and 2:1 binding equations. […] The resulting curve fits are not always perfect, especially for such complex interactions as the Eph/Ephrin system. As such, while the EphB2-EB2 and EphB4-EB2 data fit a 2:1 curve fairly well, the EphB1-EB2 interaction fits neither 1:1 or 2:1 well and the R2 values of this interaction reflects this. The interaction of EB1 with its two target proteins is more divergent. […] The EphB1-EB3 and EphB2-EB3 interactions are like that for EphB1-EB1, clear 1:1 curve fits with a slow gradual on rate of association followed by no off rate in dissociation.
On the technique in general: In BLI a coated tip is dipped into the sample, and binding shifts an interference pattern.

For another experiment, the target named is human EphrinB3. Put plainly: Octet binding kinetics, EphB to immobilized human EphrinB3. Conditions: for Kd: 2:1 fit. How it is done:
as §1, §2

For a further experiment, the target named is human EphrinB2. In words: Octet binding kinetics, EphB to immobilized human EphrinB2. On the procedure: as §1, §2
Where [1] appears, read: 2:1 fit, in parentheses R2 value, read-out: KD2.
[2] abbreviates: in parentheses R2 value, read-out: KD.
Setting [3] is: in parentheses R2 value, read-out: KD2.

B1: EphB4: soluble human EphB4-His ectodomain (protein, UniProt P54760 16-539, looked up)
extracellular domain: LEETLLNTKLETADLKWVTFPQVDGQWEELSGLDEEQHSVRTYEVCDVQRAPGQAHWLRTGWVPRRGAVHVYATLRFTMLECLSLPRAGRSCKETFTVFYYESDADTATALTPAWMENPYIKVDTVAAEHLTRKRPGAEATGKVNVKTLRLGPLSKAGFYLAFQDQGACMALLSLHLFYKKCAQLTVNLTRFPETVPRELVVPVAGSCVVDAVPAPGPSPSLYCREDGQWAEQPVTGCSCAPGFEAAEGNTKCRACAQGTFKPLSGEGSCQPCPANSHSNTIGSAVCQCRVGYFRARTDPRGAPCTTPPSAPRSVVSRLNGSSLHLEWSAPLESGGREDLTYALRCRECRPGGSCAPCGGDLTFDPGPRDLVEPWVVVRGLRPDFTYTFEVTALNGVSSLATGPVPFEPVNVTTDREVPPAVSDIRVTRSSPSSLSLAWAVPRAPSGAVLDYEVKYHEKGAEGPSSVRFLKTSENRAELRGLKRGASYLVQVRARSEAGYGPFGQEHHSQTQLDESEGWREQLA
modifications: extracellular domain His tag
notes: soluble human EphB4-His ectodomain
As to B1, the “KD (binding in words)” value at human EphrinB1 and on human EphrinB3 was “no binding” throughout. In addition, the Kd is 42 nM at human EphrinB2 (setting [1]); 0.35 nM at human EphrinB2 (2:1 fit, read-out: KD1); 1.8 nM on human EphrinB2 (setting [2]).

B2: EphB1: soluble human EphB1-His ectodomain (protein, UniProt P54762 18-540, looked up)
extracellular domain: MEETLMDTRTATAELGWTANPASGWEEVSGYDENLNTIRTYQVCNVFEPNQNNWLLTTFINRRGAHRIYTEMRFTVRDCSSLPNVPGSCKETFNLYYYETDSVIATKKSAFWSEAPYLKVDTIAADESFSQVDFGGRLMKVNTEVRSFGPLTRNGFYLAFQDYGACMSLLSVRVFFKKCPSIVQNFAVFPETMTGAESTSLVIARGTCIPNAEEVDVPIKLYCNGDGEWMVPIGRCTCKPGYEPENSVACKACPAGTFKASQEAEGCSHCPSNSRSPAEASPICTCRTGYYRADFDPPEVACTSVPSGPRNVISIVNETSIILEWHPPRETGGRDDVTYNIICKKCRADRRSCSRCDDNVEFVPRQLGLTECRVSISSLWAHTPYTFDIQAINGVSSKSPFPPQHVSVNITTNQAAPSTVPIMHQVSATMRSITLSWPQPEQPNGIILDYEIRYYEKEHNEFNSSMARSQTNTARIDGLRPGMVYVVQVRARTVAGYGKFSGKMCFQTLTDDDYKSELREQLP
modifications: extracellular domain His tag
notes: soluble human EphB1-His ectodomain
Turning to B2, the Kd is 0.0012 nM on human EphrinB3 (setting [3]); 0.0014 nM on human EphrinB3 (read-out: KD1); 27 nM on human EphrinB2 (setting [1]); less than 0.001 nM on human EphrinB2 (2:1 fit, read-out: KD1); 4.3 nM at human EphrinB2 (setting [2]).

B3: EphB2: soluble human EphB2-His ectodomain (protein, UniProt P29323 19-543, looked up)
extracellular domain: VEETLMDSTTATAELGWMVHPPSGWEEVSGYDENMNTIRTYQVCNVFESSQNNWLRTKFIRRRGAHRIHVEMKFSVRDCSSIPSVPGSCKETFNLYYYEADFDSATKTFPNWMENPWVKVDTIAADESFSQVDLGGRVMKINTEVRSFGPVSRSGFYLAFQDYGGCMSLIAVRVFYRKCPRIIQNGAIFQETLSGAESTSLVAARGSCIANAEEVDVPIKLYCNGDGEWLVPIGRCMCKAGFEAVENGTVCRGCPSGTFKANQGDEACTHCPINSRTTSEGATNCVCRNGYYRADLDPLDMPCTTIPSAPQAVISSVNETSLMLEWTPPRDSGGREDLVYNIICKSCGSGRGACTRCGDNVQYAPRQLGLTEPRIYISDLLAHTQYTFEIQAVNGVTDQSPFSPQFASVNITTNQAAPSAVSIMHQVSRTVDSITLSWSQPDQPNGVILDYELQYYEKELSEYNATAIKSPTNTVTVQGLKAGAIYVFQVRARTVAGYGRYSGKMYFQTMTEAEYQTSIQEKLPL
modifications: extracellular domain His tag
notes: soluble human EphB2-His ectodomain
In the case of B3, the Kd at human EphrinB1 (setting [1]) came out at 40 nM; on human EphrinB1 (2:1 fit, read-out: KD1), 41 nM; on human EphrinB1 (setting [2]), 8.57 nM; on human EphrinB3 (setting [3]), 0.0018 nM; on human EphrinB3 (read-out: KD1) it was 0.0018 nM; at human EphrinB2 (setting [1]) it was 16.8 nM. The Kd worked out at 5.9 nM on human EphrinB2 (2:1 fit, read-out: KD1) and 4.84 nM on human EphrinB2 (setting [2]).
